Laboratory results published in US9365836B2, “Glycosyltransferase gene and use thereof” (SUNTORY HOLDINGS LIMITED, priority 2011, dated 2016).

B1: NmGT4: Nemophila glycosyltransferase (SEQ ID NO: 4, cDNA SEQ ID NO: 3) expressed in Escherichia coli, His-Tag purified (protein, listed as Nemophila menziesii)
chain: MAAQLHVVFFPFMAQGHLIPTLEMVKLFSSRGLKTTIVTTKFYAPAVTKSIEKTKHTGNQINIIIIKFPSAEVGLPEGSESLDKLKSPDMFMKFFKALSLLQEPFEQILQELSPDCIVSDMFFPWTTASAAKFDIPRFVFHGLSLFALCVSENMRFYKPFKNLGSESLDSEPVMLPDFPNQIEFSKVQVPEFEVGESKNEIMELLNQVKESEVKSYGIIINSFNELEKDYVDYYRNVWGRRAWLLGPLSLSNRDDEVKDQTDEHGSLKWLDSKKPDSVIYVCFGSVAPLSSSQLHEIALGLESSGQQFIWVVKEREDGEKWLPEGFEERIKDKGLIIRGWAPQVSILEHESTGGFVTHCGWNSVLEAVSAGVVMATLPTFAEQPFNEKLLTKVLKIGIPIGSPLSNRGKSGVKKEEIAEAMKGIMEGEEALEMRIRAKSLKEMAWKAVEEGGSSYNDLTSLIDGVKAYRSQSNKI
modifications: His-tag
B2: SuGT5: Salvia uliginosa glycosyltransferase (SEQ ID NO: 13, cDNA SEQ ID NO: 12) expressed in Escherichia coli, His-Tag purified (protein, listed as Salvia uliginousa)
chain: MKQLHIALFPSMAHGHMIPMFELAKLFTSRGLKATIIATPAFAAPITKAQQSGLDVGLAITPFPPKGSSLPQNIIAFDQMTNPDLTTSFLRAMELLQEPVEAILQELHPDCLVSDMFLPWTADSAAKFQIPRLAFYGTSYFSRCVSEQVGDKPFNNVTSDSEPVLVPGLPQQIKFVRSQFSPVLLEETQNDFAKLFKQMTEAWKKTYGEVVNSFNELESDYANHYKNVIGRKAWEIGPLLLCSSSKGGEKNQQRGKESAIDEHECLAWLDSKNPNSVVYVCAGSVASFSQAQLRETAMGLEASGQNFVWVVRKNKEDDDDWLPVGFEERVGNRGLIIRGWAPQVMILNHAAVGAFVTHCGWNSTLEGVCAGLPMVTWPVFAEQFFNEKLVTEVLGTGVSVGNKRWMLRESEGVERDAVARAVEEIMVGGGAEEMRSRAENYKEMAKKAVEEGGSSYNNLNALIEELSNYVAPTIQDKN
modifications: His-tag
B3: NmGT3: Nemophila glycosyltransferase (SEQ ID NO: 2, cDNA SEQ ID NO: 1) expressed in Escherichia coli, His-Tag purified (protein, listed as Nemophila menziesii)
chain: MPSILSNSAHILLFPFPTSGHIIPILDLANQLLARGLTITILITPANLTLLSTQLIELDRLGSLHTLVLPFPNPPNPSETSLAARVHASSQLSNTIIQWFQSHTSPPVAIVSDFFLGWTNSLASQLGIPRLVFWPSGVQRSSLVDYIWQNDQLSDSDHQIQDNSVISFPDVPNSPAYPKWQACGLSTQYKKGDPSWEFFKNGVLANTQSWGAIYNSFRDLEGVYIDYIKKKMGHGRVWAVGPLLPANDASKRGGSCVMPIDDVMTWLDTKTNSDNSVVYVCFGSRVELTTEQLDSLAAALEISGVHFILCVKLHQEISKEYEDRVAGRGLIIRGWAPQVAILRHRAVGAFLTHCGWNSILEGIAAGVVMLTWPMGADQFTNANLLVDELKVAMKACEGGDSNVPNPAMLANVLAESINGGRAERERVTELCDAALKAVQSGNGSSAKDLDSLTNQLNGLKVKIN
modifications: His-tag

Columns and labels:
Type in all cases: biochemical
[1] = Determination of enzyme activity of candidate glycosyltransferases, crude enzyme from Escherichia coli (HPLC); conditions: crude enzyme solution, substrate apigenin, UDP-glucose, 30° C., 1 hour
Method: pET-NmGT0 through pET-NmGT9 were introduced into Escherichia coli strain BL2 using the One Shot BL21 (DE3) (Invitrogen) according to a protocol recommended by the manufacturer to obtain transformed Escherichia coli. The Escherichia coli was cultured, using the Overnight Express Autoinduction System 1 (Novagen) according to a protocol recommended by the manufacturer. With 2 ml of the culture liquid prepared, the transformed Escherichia coli was cultured at 37° C. (about 4 hours) until the OD600 value reached 0.5. To this Escherichia coli solution as the preculture, 50 ml of the culture liquid was added and then subjected to the main culture overnight at 27° C. […]
80 μl of the crude enzyme solution, 20 μl of 5 mM UDP-glucose, 20 μl of 1M Tris HCl (pH 7.5), and 1 μl of 500 ng/μl apigenin were prepared on ice to 200 μl in water, and the reaction mixture obtained was maintained at 30° C. for 1 hour. Subsequently, 200 μl of the stopping buffer (a 90% acetonitrile aqueous solution containing 0.1% TFA) was added to stop the reaction, and analyzed with a high performance liquid chromatography (Prominence (Shimadzu)). The detector used is Shimadzu PDA SPD-M10AVP, and the flavone was detected at 330 nm. […]

[2] = Reactivity to various flavonoid compounds and betanidine (FIG. 13)
[3] = Determination of enzyme activity of His-Tag-purified NmGT3 and NmGT4 protein solutions (HPLC); conditions: for product biosynthesized from apigenin 7-glucoside: substrate 50 ng/μl apigenin 7-glucoside, same condition; for product biosynthesized from apigenin: substrate 500 ng/μl apigenin, UDP-glucose, 30° C., 20 minutes; for product biosynthesized from apigenin 4′-glucoside: substrate apigenin 4′-glucoside, same condition (not shown)
Method: The Escherichia coli strain BL2 in which pET-NmGT3 or pET-NmGT4 described in Example 5 was introduced was cultured, using the Overnight Express Autoinduction System 1 (Novagen) according to a protocol recommended by the manufacturer. With 8 ml of the culture liquid prepared, the transformed Escherichia coli was cultured at 37° C. (about 4 hours) until the OD600 value reached 0.5. To this Escherichia coli solution as the preculture, 200 ml of the culture liquid was added and then subjected to the main culture overnight at 25° C.
The overnight-cultured Escherichia coli solution was centrifuged (1000×g, 4° C., 10 minutes), and the cells collected were suspended in 20 ml of a buffer (composition: NaCl: 0.5 M, Tris HCl (pH 7.9): 20 mM, imidazole: 5 mM, amidinophenyl methanesulfonyl fluoride hydrochloride (APMSF): 10 μM), and Escherichia coli was disrupted by sonication. The cells were then centrifuged (1400×g, 4° C., 20 minutes), and the supernatant was collected. The supernatant was passed through a 0.45 μm filter to His-Tag-purify using the Profinia (Bio-Rad) according to a protocol recommended by the manufacturer. The purified protein solution thus obtained was centrifuged (7500×g, 4° C., 15 minutes) using the Centrifugal filters (Ultracel-10K) (Amicon Ultra), and the concentrated protein solution was termed as “NmGT3 protein solution” and “NmGT4 protein solution”. For centrifugation, the Avanti HP-26 XP (rotor: JA-2) was used (BECKMAN COULTER).
(§1) 20 μl of the protein solution, 20 μl of 5 mM UDP-glucose, 20 μl of 1M Tris HCl (pH 7.5), and 1 μl of 500 ng/μl apigenin were mixed and prepared on ice to 200 μl in water, and the reaction mixture obtained was maintained at 30° C. for 20 minutes. Subsequently, 200 μl of the stopping buffer (a 90% acetonitrile aqueous solution containing 0.1% TFA) was added to stop the reaction, and analyzed with a high performance liquid chromatography (Prominence (Shimadzu)). The detector used is Shimadzu PDA SPD-M10AVP, and the flavone was detected at 330 nm. The column used is Shim-Pack ODS 150 mm×4.6 mm (Shimadzu). In elution, solution A (a 0.1% TFA aqueous solution) and solution B (a 90% methanol aqueous solution containing 0.1% TFA) were used. A linear gradient from a 8:2 mixture of the two solutions to a 3:7 mixture over 10 minutes and then a 3:7 mixture over 6 minutes were used in elution. The flow rate was set at 0.6 ml/minute.

[4] = Determination of enzyme activity of His-Tag-purified SuGT protein solutions from Salvia uliginosa (HPLC)
Method: Escherichia coli expression constructs (pET-SuGT2, 5, 10) were created in a manner similar to that described in Example 5.
In a manner similar to that described in Example 5, “SuGT2 protein solution”, “SuGT5 protein solution” and “SuGT10 protein solution” were prepared.
as §1, with “20 μl of the protein solution, 20 μl of 5 mM UDP-glucose, 20 μl of 1M Tris HCl (pH 7.5), and 1 μl of 500 ng/μl apigenin were mixed and prepared on ice to 200 μl in water, and the reaction mixture obtained was maintained at 30° C. for 20 minutes.” left out

Molecule | HPLC peaks after reaction of crude enzyme with apigenin [1] | reactivity to various flavonoid compounds and betanidine [2] | product biosynthesized from apigenin 7-glucoside [3] | product biosynthesized from apigenin [3] | product biosynthesized from apigenin 4′-glucoside [3] | product biosynthesized from apigenin 7-glucoside ([4]; substrate 500 ng/μg apigenin 7-glucoside, same condition) | product biosynthesized from apigenin ([4]; substrate 500 ng/μg apigenin, UDP-glucose, 30° C., 90 minutes)
B1 | peaks other than that of the substrate were observed | found to have an activity for not only apigenin and its glycosides but for luteolin and its glycosides and flavonol and its glycosides | a flavone exhibiting the same retention time and the same absorption maximum as the purified apigenin 4′,7-diglucoside product was biosynthesized | a flavone exhibiting the same retention time and the same absorption maximum as the purified apigenin 4′,7-diglucoside product had been biosynthesized | a flavone exhibiting the same retention time and the same absorption maximum as the apigenin 4′,7-diglucoside purified product was biosynthesized | – | –
B2 | – | found to have an activity for not only apigenin and its glycosides but for luteolin and its glycosides and flavonol and its glycosides | – | – | – | a flavone exhibiting the same retention time and the same absorption maximum as the purified apigenin 4′,7-diglucoside product was biosynthesized | a flavone exhibiting the same retention time and the same absorption maximum as the purified apigenin 4′,7-diglucoside product had been biosynthesized
B3 | peaks other than that of the substrate were observed | found to have an activity for not only apigenin and its glycosides but for luteolin and its glycosides and flavonol and its glycosides | a flavone exhibiting the same retention time and the same absorption maximum as the purified apigenin 4′,7-diglucoside product was biosynthesized | a flavone exhibiting the same retention time and the same absorption maximum as the purified apigenin 4′,7-diglucoside product had been biosynthesized | a flavone exhibiting the same retention time and the same absorption maximum as the apigenin 4′,7-diglucoside purified product was biosynthesized | – | –
